Laboratory results from PMC3130009, “Trichinella spiralis Paramyosin Binds to C8 and C9 and Protects the Tissue-Dwelling Nematode from Being Attacked by Host Complement” (PLoS Neglected Tropical Diseases, 2011).

Key:
Experiment in all cases: cell-based or functional assay
[1] = target: human complement component C8, alpha chain (human, UniProt P07357 31-584)
[2] = target: human complement component C8, beta chain (human, UniProt P07358 55-591)
[3] = target: human complement component C9 (human, UniProt P02748 22-559)

Measured: reduction of alternative-pathway complement-mediated lysis of rabbit erythrocytes by 6% normal guinea pig serum, 0 to 40 µg rTs-Pmy (55.7% at 10 µg)

Chain of human complement component C9 (P02748 22-559): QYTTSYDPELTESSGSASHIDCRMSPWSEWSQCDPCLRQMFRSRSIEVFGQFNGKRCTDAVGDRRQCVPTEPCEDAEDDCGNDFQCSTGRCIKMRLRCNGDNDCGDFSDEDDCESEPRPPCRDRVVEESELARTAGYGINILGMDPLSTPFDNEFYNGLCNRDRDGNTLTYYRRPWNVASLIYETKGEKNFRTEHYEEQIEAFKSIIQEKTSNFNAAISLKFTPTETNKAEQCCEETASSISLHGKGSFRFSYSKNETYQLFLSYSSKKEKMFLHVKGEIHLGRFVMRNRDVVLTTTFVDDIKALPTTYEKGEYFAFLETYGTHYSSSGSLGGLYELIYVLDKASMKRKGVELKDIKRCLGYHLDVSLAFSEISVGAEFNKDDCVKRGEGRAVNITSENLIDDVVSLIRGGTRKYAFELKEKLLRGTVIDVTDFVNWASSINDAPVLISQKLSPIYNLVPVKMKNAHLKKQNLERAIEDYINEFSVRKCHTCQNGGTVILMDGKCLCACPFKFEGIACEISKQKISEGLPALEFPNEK
Chain of human complement component C8, alpha chain (P07357 31-584): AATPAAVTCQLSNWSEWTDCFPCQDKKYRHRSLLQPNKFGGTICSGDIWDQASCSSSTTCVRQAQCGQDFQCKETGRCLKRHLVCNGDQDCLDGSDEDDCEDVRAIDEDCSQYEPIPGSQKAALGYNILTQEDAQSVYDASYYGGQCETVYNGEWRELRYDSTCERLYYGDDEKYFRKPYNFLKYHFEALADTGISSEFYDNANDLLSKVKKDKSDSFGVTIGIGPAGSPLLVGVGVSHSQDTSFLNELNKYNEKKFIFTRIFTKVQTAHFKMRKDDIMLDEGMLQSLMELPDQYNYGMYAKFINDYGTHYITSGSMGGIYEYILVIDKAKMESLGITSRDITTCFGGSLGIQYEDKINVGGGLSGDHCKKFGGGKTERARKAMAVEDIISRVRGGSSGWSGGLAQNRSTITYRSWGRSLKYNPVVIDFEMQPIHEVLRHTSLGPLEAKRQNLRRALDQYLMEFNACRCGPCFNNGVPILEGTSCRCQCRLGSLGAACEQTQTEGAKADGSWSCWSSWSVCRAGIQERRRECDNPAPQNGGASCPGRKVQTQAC
Chain of human complement component C8, beta chain (P07358 55-591): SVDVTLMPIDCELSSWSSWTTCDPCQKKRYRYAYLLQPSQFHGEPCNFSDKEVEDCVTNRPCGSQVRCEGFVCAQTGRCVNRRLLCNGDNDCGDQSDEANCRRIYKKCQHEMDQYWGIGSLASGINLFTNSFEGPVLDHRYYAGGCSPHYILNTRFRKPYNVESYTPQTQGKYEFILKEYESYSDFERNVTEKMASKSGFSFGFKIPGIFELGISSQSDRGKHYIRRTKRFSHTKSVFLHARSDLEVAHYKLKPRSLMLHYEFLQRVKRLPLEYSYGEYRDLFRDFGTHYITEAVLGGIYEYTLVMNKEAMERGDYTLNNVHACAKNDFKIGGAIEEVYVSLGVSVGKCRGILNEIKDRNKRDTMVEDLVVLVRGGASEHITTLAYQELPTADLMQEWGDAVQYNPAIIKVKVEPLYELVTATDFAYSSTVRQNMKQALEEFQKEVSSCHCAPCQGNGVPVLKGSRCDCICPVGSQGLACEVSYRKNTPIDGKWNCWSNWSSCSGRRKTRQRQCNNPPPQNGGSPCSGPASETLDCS

B1: recombinant Trichinella spiralis paramyosin (natural protein)
chain: MSLYRSPSASVMRSASMLSRSGGFDAYGFGGYGAPSLNVADLGSLTRLEDKIRLLQDDLETERELRNRIERERADLSCQLISLTDRLEEAEGTTDAQIDANRKRESELQKLRKILEDSQLESEDSLNQLRKKHQESLLDYQQQIEQLQKKNSKIDRERQRLQHEVIELTAGIDQMQKDKHAAEKAAEKHEAHARELQNRVDDLAKNLNDLASQRQRLQQENNDLMKELHDVKVQMENIQHVKTQLAQQLEEARRRLEDAERERSQMQTQLHQMQLELDSIQGALEEESSARAEAEHKLSLANTEISQWKSKFDAEVSLHQEEVDDLRKKMIQKQAEYEEQIEIMLQKISQLEKAKSRLQSEVEVLIVDLEKAQSTIAILERQKEQLERMVAEMKTRLDEVTQELEATQRELRATQAELQKMKHLYEKAVEQKEALARENKKLQDDLHEAKEALADANRKLHELDLENARLAGEIRELQIALKEAEAARRDAESRAQRAVAELQALRVEMERRLQEKEEEMEALRKNMQFEIDRLAAALADAEARMKAEISRLKKKYQAEIAELEMTIDNLNRANLEAQKTIKKQADQLRALQSSFEDCQRQLQQTLDQYAIAQRKLSALSAELEDCKSALDTAIRVRKQAEADLEEAQGKIADLVSLNNNLTAIKGKLETDLSTCQADLDETTKELRAADDRANRAQQDAVRAMEQLHEEQEHSMKIDAMRKALEEHVKQLQVQIQEAEAAALLGGKRVIAKLETRIRDLEMALDEESRRHKETQACLRKKDRRVKEMQMQVDEEHKNFVMAQDTAERLAEKLNIYKRQLTEAESLTMQNLQRVRRYQHELEDAEGRAEQAESSLHLIRAKHRSSVSMGKSLSSKVYVMEEGHEY
91.9 % reduction of lysis: all assays above
